Reference: the supplement of paper PMC9170038

Tests used:
MS2 coat protein [1] = assay: apparent KD of MS2 coat protein, switch OFF state (with FMN for OFF switches, without FMN for ON switches); designed switch direction (-1 OFF switch, 1 ON switch): -1; higher = weaker reporter binding; details: FMN input: 0 or 200 uM; Eterna round: R93 (includes R88 designs)
Summary of the method: (§1)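 In 100 mM Tris-HCl pH 7.5 with 80 mM KCl and 4 mM MgCl2, and without or with constant ligand, SNAP-549-labelled MS2 coat protein was titrated in twofold steps from 0.7 or 1.5 nM to 3 µM. Per-step times went from 0.8–1.5 h down to 10–20 min. The RNA switches were transcribed on-chip from Illumina sequencing clusters, and apparent KD is the per-design median of normalised cluster binding-curve fits.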

MS2 coat protein [2] = assay: apparent KD of MS2 coat protein, switch ON state; designed switch direction (-1 OFF switch, 1 ON switch): -1; higher = weaker reporter binding; details: FMN input: 0 or 200 uM; Eterna round: R93 (includes R88 designs)
Summary of the method: as §1

AGUUGGCGAGGAUAUACAUGAGGAUCACCCAUGUAAAAAAAAAAAAAAAAAACUUCAUGUAGAAGGCGCUGACA [Starry Exclusion 3.4 (biggestlegoheroicafanever round 1 mod)]
apparent KD of MS2 coat protein (MS2 coat protein [1]): 63.1 nM
apparent KD of MS2 coat protein (MS2 coat protein [2]): 85.5 nM

AGUUGGCGAGGAUAUACAUGAGGAUCACCCAUGUGAAAGAAAAAAGUGAGAAAGAAAAGUAGAAGGCGCUGACA [73%, Moding Norbert Elias, 2]
apparent KD of MS2 coat protein (MS2 coat protein [1]): 181 nM
apparent KD of MS2 coat protein (MS2 coat protein [2]): 54.7 nM

AGUUGGCGAGGAUAUACAUGAGGAUCACCCAUGUGAAAUAAUGAAAAAGUAGGGAAAAGUAGAAGGCGCUGACA [73%, Moding Norbert Elias, 20]
apparent KD of MS2 coat protein (MS2 coat protein [1]): 143 nM
apparent KD of MS2 coat protein (MS2 coat protein [2]): 37.7 nM

AGUUGGCGAGGAUAUACAUGAGGAUCACCCAUGUGAAAUCGAGAAAAAAUAGGGAAAAGUAGAAGGCGCUGACA [Ruby 62]
apparent KD of MS2 coat protein (MS2 coat protein [1]): 90.6 nM
apparent KD of MS2 coat protein (MS2 coat protein [2]): 22.5 nM

AGUUGGCGAGGAUAUACAUGAGGAUCACCCAUGUGAGAGAAAAAAGUGAGAAAGAAAAGUAGAAGGCGCGGACA [Ruby 1]
apparent KD of MS2 coat protein (MS2 coat protein [1]): 70.4 nM
apparent KD of MS2 coat protein (MS2 coat protein [2]): 47.3 nM

AGUUGGCGAGGAUAUACAUGAGGAUCACCCAUGUGAGAGUAAAGAGUGAGAAAGAGAAGUAGAAGGCGCUGACA [Ruby 56]
apparent KD of MS2 coat protein (MS2 coat protein [1]): 180 nM
apparent KD of MS2 coat protein (MS2 coat protein [2]): 81.1 nM

AUAAAACAUGAGGAUCACCCAUGUGAGGAUAUCUAAAAAGAAAGAAAAAAAAAAAAAAAGAGAAGGCACAAUAA [Amethyst 45]
apparent KD of MS2 coat protein (MS2 coat protein [1]): 31.8 nM
apparent KD of MS2 coat protein (MS2 coat protein [2]): 27.7 nM

AUAAACAGAGGAUAUACGCAAAUAAAAGAAAAUAAAGAAACACAUGAGGAUCACCCAUGUAGAAGGCUGGAAAA
apparent KD of MS2 coat protein (MS2 coat protein [1]): 16.7 nM
apparent KD of MS2 coat protein (MS2 coat protein [2]): 21.1 nM

AUAAAGUGAGGAUAUCGAAGACUGUCGAAAAGACAGUCGAACGAGAAGGCACAUGAGGAUCACCCAUGUGAGGG [Mat - Exaclusion 4 - Eli mod - D68]
apparent KD of MS2 coat protein (MS2 coat protein [1]): 122 nM
apparent KD of MS2 coat protein (MS2 coat protein [2]): 79.7 nM

AUAAUGCGAGGAUAUACAUGAGGAUCACCCAUGUAAAUCAAUAGGAGAGCCACAUUAAGUAGAAGGUGCAUUAA [JR_Exc003_Sub502]
apparent KD of MS2 coat protein (MS2 coat protein [1]): 49.1 nM
apparent KD of MS2 coat protein (MS2 coat protein [2]): 20.4 nM

AUACGCUGAGGAUAUACCGAAACAACAUCCUCGUGUAUAAUACAUGAGGAUCACCCAUGUAGAAGGCAGUAAAA [Usmaan]
apparent KD of MS2 coat protein (MS2 coat protein [1]): 85.5 nM
apparent KD of MS2 coat protein (MS2 coat protein [2]): 46.2 nM

AUAGUACAUGAGGAUCACCCAUGUCAGGAUAUUCGAAACGAAAAAAAAAAAAAGUGAAGGAGAAGGGACUAUAA [EX1 Malc#10]
apparent KD of MS2 coat protein (MS2 coat protein [1]): 21.1 nM
apparent KD of MS2 coat protein (MS2 coat protein [2]): 17.5 nM

AUAGUACAUGAGGAUCACCCAUGUCAGGAUAUUGGAUAUGAAAAAAAAAAAAAGUUAACGAGAAGGGACUAUAA [EX1 Malc#14]
apparent KD of MS2 coat protein (MS2 coat protein [1]): 33.6 nM
apparent KD of MS2 coat protein (MS2 coat protein [2]): 28.5 nM

AUCAUCCUAGGAUAUACAUGGAUAUACAUUCAUGUGGACCUACAUGAGGAUCACCCAUGUAGAAGGAGGAUGAA [Mat - Same state - Mayanna Mod - D139]
apparent KD of MS2 coat protein (MS2 coat protein [1]): 75.1 nM
apparent KD of MS2 coat protein (MS2 coat protein [2]): 36.7 nM

AUCAUGUAAGGAUAUUAAAGAAAAGAAAAGAAAGAAAAGAAUAAGAAGGUACAUGAGGAUCACCCAUGUAAGAA [EteRNA is fun!]
apparent KD of MS2 coat protein (MS2 coat protein [1]): 17 nM
apparent KD of MS2 coat protein (MS2 coat protein [2]): 27 nM

AUCAUGUUAGGAUAUAAAAGAAAAGAAAAGAAAGAAAAGAAUUAGAAGGAACAUGAGGAUCACCCAUGUAAGAA [EteRNA is fun!]
apparent KD of MS2 coat protein (MS2 coat protein [1]): 26.5 nM
apparent KD of MS2 coat protein (MS2 coat protein [2]): 34.7 nM

AUCGAUCGAGGAUAUACAUGAGGAUCACCCAUGUAAAGCAGAAGAAAGGCCUCAGGAUGUAGAAGGCGACGCAA [JR_Exc003_Sub404]
apparent KD of MS2 coat protein (MS2 coat protein [1]): 41.9 nM
apparent KD of MS2 coat protein (MS2 coat protein [2]): 17.1 nM

AUCUUGUCAGGAUAUCGUAUAAUAUGGAAAACAUAGAGAUACGAGAAGGGACAUGAGGAUCACCCAUGUAAAAC [May 97]
apparent KD of MS2 coat protein (MS2 coat protein [1]): 40 nM
apparent KD of MS2 coat protein (MS2 coat protein [2]): 41.7 nM

AUUAAACAUGAGGAUCACCCAUGUGAGGAUAUGCAAAAAAAAUUAUAUUAAAAAAAAAGCAGAAGGCACAUAUA [coft]
apparent KD of MS2 coat protein (MS2 coat protein [1]): 62.3 nM
apparent KD of MS2 coat protein (MS2 coat protein [2]): 36.3 nM
